Measured values from the nanobody polyreactivity screen of Harvey et al. (2022).

Assay: yeast display, Sf9 membrane polyspecificity reagent, FACS + sequencing; frameworks hold sequencing errors
Summary of the method: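 Nanobodies from a synthetic yeast display library (Saccharomyces cerevisiae BJ5465), induced 36–48 hours with galactose, were stained 1 hour at 4 °C with 10% biotinylated, detergent-solubilized Sf9 membrane reagent, enriched on streptavidin microbeads, then FACS-sorted. Anti-HA (expression) and streptavidin (reagent binding) fluorescence set low and high (top ~1%) gates. Polyreactivity labels come from the gate of origin. Genes were colony-PCR amplified, MiSeq 2 × 250 sequenced and filtered by CDR length.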

Sequence	polyreactivity (PSR sort gate)
QLQLVESGGGLVQAGASLRLSCAASGSILWPSARGWYRQAPGKERELVAAISTGGSTYYADSVKGRFTISRDNAKNTVYLQMNSLKPEDTAVYYCAAYVDYSVYFGGGYWGQGTQVTVSS	low polyreactivity
QVQLVESGGGLVQAGGSLRLICAASGLTFYVNAMGWYRQAPGKERELVADISSGVSTNYADSVKGRFTISRDNAKNTVYLQMNSLKPEDTAVYYCNVERYKKLSRTHNYRRYNYWGQGTQVTVSS	high polyreactivity
QVQLVESGGGLVQAGGSLRLSCAASGSIFSKYTMGWSRQAPGKEWELVAVISDSGASTYYADSVKGRFTISRDNAKNTVYLEMNSLKPEDTAVYYCAAVYRGALTLYYWGQGTQVTVSS	high polyreactivity
QVQLVESGRGIVQAGGSLRLSCAASGRIFRVNAMGWYRQAPGKERELVATISYSGGSTYADSVKGRFTISRDNAKNTVYLQMNSLKPEDTAVYYCAARPYYRYYRYPYGYWGQGTQVTVSS	high polyreactivity
QVQLVDSGGGLVQAGGSLRLSCAASGSTFDPYTMGWYRQAPGTERELVAGMTGGGSTYYADCVKGRFTISRDNAKNTVYLQMNSLKPEDTAVYYCARDYSYYKGPDGHYWGQGTQVTVSS	low polyreactivity
QVQLVESGGGLVQAGGSLRLSCAASGRIFHQYGMGGYSQAPGKERELVAAIRSGDSTNYADSVKGRFTISRDNAKNTVYVQMNSLKPEDTAVYYCARDRPGDYAGYDYWGQGTQVTVSS	low polyreactivity
QVQLVESGGGLVQAGGSLRLSCAASGRIFPYYAMGWYRQAPGKERELVATISSGGRTNYADSVKGRFTMSRDNAKNTVYVQMNSLKPEDTAVYYCAADYRTPTDVEYDYWGQGTQVTVSS	high polyreactivity
QVQLQVSGGDLVQAGGSLRLSCAASGTIYGLISMGWYRQAPGKEREFVAAITDGGNTNYADSVKGRFTISRDNAKYTVYLQMISLKPEDTAVYYCAVLFSDDAYYAYWGQGTQVTVSS	low polyreactivity
QVQLVESGGGLVQAGGSLRLSCAASGRTFYDYAMGWYRQAPGKERELVAAITYRDGTTYYADSVKGRFTISRDNAKNTVYLQMNSLKPEDTAVYDCGKTYYYSLGHGYNYWGQGTQVTVSS	low polyreactivity
QVQLVESGGGLVQAGGSLRLSCAASGITFGAYAMGWYRQAPGKERELVAVITRGADTYYADSVKGRFTISRDNAKNTVYLQMNSLKPEETAVYYCAAQIDLPYYYGSDDDDYWGQGTQVTVSS	high polyreactivity
QVQLVESGGGLVQAGGSLRLSCAASGFIFQGYTMGWYRQAAGKERELVAAITSSGRTYYADSVKGRFTISRDNAKNTVYLQMNSLKPEDTAVYYCNADFLPSVANDYWGQGTQVTVSS	low polyreactivity
QVQLVESGGGLVQAGGSLRLSCAASGFTIYNNAMGWYRQAPGKERELVAGITSGGDSTNYADSVKGRFTISRDNAKNTVYLQMNRLKPEDTAVYYCAAEGGTNTPGVVESDYWGQGTQVTVSS	low polyreactivity
QVHLVESGGGLVQAGGSLRLSCAASGNIIDSNAMGWYRHAPGKERELVAAITWSGGSTYYADSVKGRFTISRDNAKTTVYLPMNSLKPADTAVYYCAAYAQKRYYWGQGTQVTVSS	high polyreactivity
QVQLVESGGGLVQAGGSLRLSCAASGFTFYNYAMGWYRPAPGKERELVAAITKSGSRTYYADSVKGRFTISRDNAKNTVYLQMNSLKPEDTAVYYCARDYTVRGYDYWGQGTQVTVSS	high polyreactivity
QVQLVESGGGLVQAGGSLRLSCAASGRTFILNAMGWYRQAPGKERELVAAISWSGGSTYYADSVKGRFTISRDTAKNTVYLQMNSLKPEDTAVHYCATVRAWIPSGDYEYWGQGTQVTVSS	low polyreactivity
QVQLVESGGGLVQAGGSLRFSCAASGRIFVNYAMGWYRQAPGKEREFVAAITSSGGSTYYADSVKGRFTISRDNAKNTVYLQMNSLKPEDTAVYYCAARGSLGGWGLRYYWGQGTQVTVSS	high polyreactivity

Sequence	polyreactivity (PSR sort gate)
QVQLVESGGGLVQAGGSLRLSCAASGFIFWSYAMGWYRQAPGKERELVAVITSGASTYYADSVKGRFTISRDNAKNTVYLQMNSLKPEDTAVYYSAAEYWVPAWKFGYEYWGQGTQVTVSS	high polyreactivity
QVQLVEAGGGLVQAGGSLRLSCAASGSTFRWNAMGWYRQAPGKERELVAAITRSGGSTYYADSVKGRFTISRDNAKNTFYLQMNSLKPEDTAVYYCAAGYFTARRIRYDYWGQGTQVTVSS	high polyreactivity
QVQLVESGGGLVQAGGSLRLSCAASGFTFSRYTMGWYRQAPGKERELVAAINRRGGSTYYADSVKGRFTISRDNAKNTVYLQMNSLKPEDTAVYYCAAAVYLGRFGVILGYWGQGTQVTVSS	high polyreactivity
QVQLVESGVGKVQAGGSLRLSCAASGSTIGSNAMGWYRQAPGKESELVATINWRGGSTYADSVKGRFTLSRDNAKNTVYLQINSLKPEDTAVYYCKKVRGAFYSHLFDYWGQGTEVTVSS	high polyreactivity
QVQLVESGGGLVQAGGSLRLSCADSGRTFYHYAMGWYRQAPGKERELVATITSSGGNTYYADSVKGRFTISRDNAKNTVYLQINSLKPEDTAVYYCAADWFVYQYSFGSSEYYYWGQGTQVTVSS	low polyreactivity
QVQLVESGGGLVQAGGSLRLSCAASGITFGWYAMGWYRQAPGKERELVAAISTGSSTYYADSVKGRFTISRDNAKNTVYLQMNSLKPEDTAVYYCAAYYGISFDYWGQGSQVTVSS	high polyreactivity
QVQLVESGGGLVQAGGSLRLSCAASGSICDVNAMGWYRQAPGKEREMVAAISDSGGSTYYADSVKGRFTISRDTAKNTVYLQMNSLNPEDTSVYYCNADWSWYNYYDFDYWGQGTQVTVSS	low polyreactivity
QVQLVESGGGLVQAGGSLRLSCAASGRTFPGNAMGWYRQAPGKERELVATISSGGTTYYADSVKGRFTISRDNAKNTVYLQMNSLKPEDTAVYYCATDTYHHKADYEYWGQGTQVSVSS	low polyreactivity
QVQLVESGGGLVQAGGSLRLSCAGSGFTFQYYAMGWYRQAPGKERELVAAMSWGGGSTYYADSVKGRFTISRDNAKKTVYLQMNSLKPEDTAVYYCNAYDYLSAGDDYWGQGTQVTVSS	low polyreactivity
QVQLVESGGGLVQAGGSLRLSCAASGRTINRYAMGWYRQAPGKERELVAAISTSGGTTYYADSVKGRFTISRDNAKNTVYLQMNSLKPEDTAVYYCNARALAYWGQGTQVTVSS	high polyreactivity
QVQLVESGGGLVQAGGSLRLSCAASGSILVRYAMGWYRQAPGKERELVAAITYSVGSTYYADSVKGRFTISRDNAKNTVYLQMNSLKPEDTAVYYCAASGGTEVLLMDYWGQGSQVTVSS	low polyreactivity
QVQLVESGGGLVQAGGSLRLSCAASGRIFRTYAMGWYRQAPGKERELVAAISYSGGSTFYADSVKGRFTISRDNAKNTVYLQMNSLKPEDTAVYYCAADSRAKRYYWGQGTQVTVSS	high polyreactivity
QVQLVESGGGLVQAGGSLRLSCAASGSTFYVNAMGWYRQAPGKERELVAYADSVKGRFTISRDNAKNTVYLQMNSLKPEDTAVYYCNADIEYRPGHGRLGDYDYWGQGTQVTVSS	low polyreactivity
QVQLVESAGGLVQAGGSLRLSCAASGRIFGRYAMGWYRQAPGKERELVAAITSGTSTYYADSVKGRFTISRDNAKNTVYLQMNSLKPEDTAVYYCNADYPYYPYRENYWGQGTQVTVSS	low polyreactivity
QVHLVVSGGGLVQAGRSLRLICAASGSTFKAYAMGWYRQAPGKERELVAAITRRGTSTYYADSVKGRFTISRDNAKKTVYLQMNSLKPEDTADYYSNAKYVSDRSSAVSFDYWGQGTQVTVSS	low polyreactivity
QVQLVESGGGLVQAGGSLRLSCAASGFTFSYYAMGWYRQAPGKERELVAAITSGGSTYYADSVKGRFTISRDNAKNTVYLQMNSLKPEDTAVYYCNARGYGTLNVRRERMDYWGQGTQVTVSS	high polyreactivity
